Assay results taken from article PMC9482650, “Quantitative fragmentomics allow affinity mapping of interactomes” (Nature Communications, 2022).

T1: APBA1_2, Q02410
T1 sequence (Q02410 742-832, limits assumed, looked up): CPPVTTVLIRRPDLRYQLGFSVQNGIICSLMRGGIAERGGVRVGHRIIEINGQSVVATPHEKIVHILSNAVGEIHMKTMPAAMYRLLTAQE

T2: CARD11, Q9BXL7
T2 sequence (Q9BXL7 662-765, limits assumed, looked up): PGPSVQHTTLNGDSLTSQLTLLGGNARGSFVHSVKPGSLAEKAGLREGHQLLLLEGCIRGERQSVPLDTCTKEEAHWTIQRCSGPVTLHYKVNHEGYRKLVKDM

T3: LIN7A, O14910
T3 sequence (O14910 103-200, limits assumed, looked up): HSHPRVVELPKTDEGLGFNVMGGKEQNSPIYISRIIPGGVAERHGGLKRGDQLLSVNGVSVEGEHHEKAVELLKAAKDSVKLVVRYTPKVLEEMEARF

T4: LNX2_3, Q8N448
T4 sequence (Q8N448 463-564, limits assumed, looked up): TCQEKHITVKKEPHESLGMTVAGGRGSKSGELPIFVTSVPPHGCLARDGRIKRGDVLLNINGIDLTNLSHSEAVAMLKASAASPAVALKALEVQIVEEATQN

T5: MPDZ_12, O75970
T5 sequence (O75970 1857-1958, limits assumed, looked up): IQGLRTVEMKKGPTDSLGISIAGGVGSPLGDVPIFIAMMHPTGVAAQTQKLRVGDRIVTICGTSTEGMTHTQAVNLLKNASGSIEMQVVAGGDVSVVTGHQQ

T6: NHERF3_4, Q5T2W1
T6 sequence (Q5T2W1 373-468, limits assumed, looked up): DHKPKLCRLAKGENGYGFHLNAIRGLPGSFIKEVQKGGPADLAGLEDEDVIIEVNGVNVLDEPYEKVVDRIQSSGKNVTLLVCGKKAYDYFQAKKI

T7: PDZD2_2, O15018
T7 sequence (O15018 329-429, limits assumed, looked up): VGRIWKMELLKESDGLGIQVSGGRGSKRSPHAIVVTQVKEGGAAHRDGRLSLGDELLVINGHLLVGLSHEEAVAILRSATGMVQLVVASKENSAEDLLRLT

T8: RAPGEF6, Q8TEU7
T8 sequence (Q8TEU7 525-625, limits assumed, looked up): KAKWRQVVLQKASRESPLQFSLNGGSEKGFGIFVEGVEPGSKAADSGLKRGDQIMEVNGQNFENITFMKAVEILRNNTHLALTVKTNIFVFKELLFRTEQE

T9: SHANK1, Q9Y566
T9 sequence (Q9Y566 658-767, limits assumed, looked up): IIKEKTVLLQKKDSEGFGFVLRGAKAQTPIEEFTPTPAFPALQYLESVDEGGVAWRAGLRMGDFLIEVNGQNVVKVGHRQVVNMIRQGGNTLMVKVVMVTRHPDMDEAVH


What was measured:
Test in all cases: holdup assay
Design in all cases: key: below the threshold = too weak to quantify, mostly under pKd 3.1 to 4
Details in all cases: plain residues with an end cap or a label only (N-terminal biotin on a linker: ado-ado)
APBA1_2, Q02410 = target: T1, APBA1_2, Q02410
CARD11, Q9BXL7 = target: T2, CARD11, Q9BXL7
DLG4_3, P78352 = target: DLG4_3, P78352
DLG5_1, Q8TDM6 = target: DLG5_1, Q8TDM6
GRASP, Q7Z6J2 = target: GRASP, Q7Z6J2
GRIP2_4, Q9C0E4 = target: GRIP2_4, Q9C0E4
GRIP2_6, Q9C0E4 = target: GRIP2_6, Q9C0E4
HTRA2, O43464 = target: HTRA2, O43464
IL16_4, Q14005 = target: IL16_4, Q14005
Inadl_3, Q8NI35 = target: Inadl_3, Q8NI35
Inadl_8, Q8NI35 = target: Inadl_8, Q8NI35
Inadl_9, Q8NI35 = target: Inadl_9, Q8NI35
LIMK2, P53671 = target: LIMK2, P53671
LIN7A, O14910 = target: T3, LIN7A, O14910
LNX1_3, Q8TBB1 = target: LNX1_3, Q8TBB1
LNX2_3, Q8N448 = target: T4, LNX2_3, Q8N448
MAGI1_1, Q96QZ7 = target: MAGI1_1, Q96QZ7
MAGI2_2, Q86UL8 = target: MAGI2_2, Q86UL8
MPDZ_12, O75970 = target: T5, MPDZ_12, O75970
NHERF2_2, Q15599 = target: NHERF2_2, Q15599
NHERF3_4, Q5T2W1 = target: T6, NHERF3_4, Q5T2W1
NHERF4_1, Q86UT5-2 = target: NHERF4_1, Q86UT5-2
PARD3_3, Q8TEW0 = target: PARD3_3, Q8TEW0
PDZD2_2, O15018 = target: T7, PDZD2_2, O15018
RAPGEF6, Q8TEU7 = target: T8, RAPGEF6, Q8TEU7
SCRIB_1, Q14160 = target: SCRIB_1, Q14160
SHANK1, Q9Y566 = target: T9, SHANK1, Q9Y566
SNX27, Q96L92 = target: SNX27, Q96L92
TJP2_1, Q9UDY2 = target: TJP2_1, Q9UDY2
Sequence of TJP2_1, Q9UDY2 (Q9UDY2 24-128): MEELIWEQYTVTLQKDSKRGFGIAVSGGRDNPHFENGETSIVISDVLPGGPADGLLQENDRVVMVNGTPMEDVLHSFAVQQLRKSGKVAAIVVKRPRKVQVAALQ

Sequence of DLG4_3, P78352 (P78352 306-403): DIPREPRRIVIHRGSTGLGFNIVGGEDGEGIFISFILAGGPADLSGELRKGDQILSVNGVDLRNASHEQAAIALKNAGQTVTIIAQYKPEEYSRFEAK
Sequence of LNX1_3, Q8TBB1 (Q8TBB1 500-596): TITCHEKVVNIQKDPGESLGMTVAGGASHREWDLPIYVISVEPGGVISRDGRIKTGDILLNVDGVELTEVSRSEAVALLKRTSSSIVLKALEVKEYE
Sequence of GRIP2_4, Q9C0E4 (Q9C0E4 446-548): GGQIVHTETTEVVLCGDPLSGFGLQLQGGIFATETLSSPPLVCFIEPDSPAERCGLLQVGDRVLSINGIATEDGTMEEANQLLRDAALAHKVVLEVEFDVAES
Sequence of Inadl_3, Q8NI35 (Q8NI35 359-469): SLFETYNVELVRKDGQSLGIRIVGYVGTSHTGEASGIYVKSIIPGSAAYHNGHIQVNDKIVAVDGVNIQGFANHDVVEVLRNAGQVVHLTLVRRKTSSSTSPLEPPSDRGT
Sequence of GRIP2_6, Q9C0E4 (Q9C0E4 648-740): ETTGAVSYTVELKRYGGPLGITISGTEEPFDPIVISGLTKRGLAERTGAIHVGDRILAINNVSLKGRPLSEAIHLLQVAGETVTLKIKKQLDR
Sequence of NHERF2_2, Q15599 (Q15599 142-238): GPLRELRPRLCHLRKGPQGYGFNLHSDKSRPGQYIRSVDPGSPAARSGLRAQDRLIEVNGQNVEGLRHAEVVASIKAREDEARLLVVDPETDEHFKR
Sequence of NHERF4_1, Q86UT5-2 (Q86UT5 other isoform, or with tags, fused parts or gaps): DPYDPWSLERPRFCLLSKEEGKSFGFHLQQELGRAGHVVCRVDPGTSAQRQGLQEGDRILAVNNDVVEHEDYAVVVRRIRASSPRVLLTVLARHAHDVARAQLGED
Sequence of PARD3_3, Q8TEW0 (Q8TEW0 582-685): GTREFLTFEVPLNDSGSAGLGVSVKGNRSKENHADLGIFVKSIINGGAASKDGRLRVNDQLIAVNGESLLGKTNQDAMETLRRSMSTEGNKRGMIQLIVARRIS
Sequence of LIMK2, P53671 (P53671 143-248): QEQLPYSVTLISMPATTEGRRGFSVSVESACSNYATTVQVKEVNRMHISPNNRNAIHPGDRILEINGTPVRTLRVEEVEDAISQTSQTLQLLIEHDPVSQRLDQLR
Sequence of HTRA2, O43464 (O43464 355-458): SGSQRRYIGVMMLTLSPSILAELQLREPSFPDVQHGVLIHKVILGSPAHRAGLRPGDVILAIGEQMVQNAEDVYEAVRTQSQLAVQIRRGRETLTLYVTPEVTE
Sequence of DLG5_1, Q8TDM6 (Q8TDM6 617-713): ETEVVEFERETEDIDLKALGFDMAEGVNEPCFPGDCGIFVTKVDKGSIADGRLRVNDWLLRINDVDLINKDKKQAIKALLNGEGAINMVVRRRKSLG
Sequence of SCRIB_1, Q14160 (Q14160 718-814): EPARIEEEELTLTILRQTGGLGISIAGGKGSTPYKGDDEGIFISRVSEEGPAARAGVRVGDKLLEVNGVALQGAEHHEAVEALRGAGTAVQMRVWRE
Sequence of MAGI2_2, Q86UL8 (Q86UL8 410-522): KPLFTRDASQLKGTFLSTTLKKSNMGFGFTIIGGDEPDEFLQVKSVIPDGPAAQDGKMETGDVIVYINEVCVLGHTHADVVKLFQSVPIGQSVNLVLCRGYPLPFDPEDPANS
Sequence of Inadl_8, Q8NI35 (Q8NI35 1425-1530): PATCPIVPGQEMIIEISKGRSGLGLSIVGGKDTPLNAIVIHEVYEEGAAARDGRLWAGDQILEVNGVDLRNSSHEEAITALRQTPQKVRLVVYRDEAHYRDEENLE
Sequence of IL16_4, Q14005 (Q14005 1229-1329): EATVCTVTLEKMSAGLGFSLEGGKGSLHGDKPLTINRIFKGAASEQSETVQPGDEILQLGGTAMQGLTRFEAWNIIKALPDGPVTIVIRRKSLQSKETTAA
Sequence of Inadl_9, Q8NI35 (Q8NI35 1530-1615): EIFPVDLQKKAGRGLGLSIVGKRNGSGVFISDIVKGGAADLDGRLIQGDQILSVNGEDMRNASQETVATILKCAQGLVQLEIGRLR
Sequence of MAGI1_1, Q96QZ7 (Q96QZ7 1-106): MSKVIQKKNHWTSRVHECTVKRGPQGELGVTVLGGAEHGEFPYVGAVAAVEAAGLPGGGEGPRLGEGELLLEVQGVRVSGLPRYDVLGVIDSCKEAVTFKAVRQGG
Sequence of GRASP, Q7Z6J2 (Q7Z6J2 96-193): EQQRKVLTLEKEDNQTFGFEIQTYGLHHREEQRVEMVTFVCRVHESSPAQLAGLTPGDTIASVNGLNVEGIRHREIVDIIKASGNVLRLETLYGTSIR

pKd (APBA1_2, Q02410) | pKd (CARD11, Q9BXL7) | pKd (DLG4_3, P78352) | pKd (DLG5_1, Q8TDM6) | pKd (GRASP, Q7Z6J2) | pKd (GRIP2_4, Q9C0E4) | pKd (GRIP2_6, Q9C0E4) | pKd (HTRA2, O43464) | pKd (IL16_4, Q14005) | pKd (Inadl_3, Q8NI35) | pKd (Inadl_8, Q8NI35) | pKd (Inadl_9, Q8NI35) | pKd (LIMK2, P53671) | pKd (LIN7A, O14910) | pKd (LNX1_3, Q8TBB1) | pKd (LNX2_3, Q8N448) | pKd (MAGI1_1, Q96QZ7) | pKd (MAGI2_2, Q86UL8) | pKd (MPDZ_12, O75970) | pKd (NHERF2_2, Q15599) | Binder | also measured
3.65 | below the threshold | below the threshold | 3.69 | 4.12 | below the threshold | 3.55 | below the threshold | below the threshold | 4.63 | 3.59 | 3.89 | below the threshold | 4.38 | below the threshold | below the threshold | below the threshold | 3.76 | below the threshold | 4.33 | QELLEYETTV [XKR7, Q5GH72] | pKd (NHERF3_4, Q5T2W1): below the threshold; pKd (NHERF4_1, Q86UT5-2): below the threshold; pKd (PARD3_3, Q8TEW0): 4.19; pKd (PDZD2_2, O15018): 5.17; pKd (RAPGEF6, Q8TEU7): below the threshold; pKd (SCRIB_1, Q14160): 4.41; pKd (SHANK1, Q9Y566): 4.44; pKd (SNX27, Q96L92): 5.77; pKd (TJP2_1, Q9UDY2): below the threshold
4.16 | below the threshold | below the threshold | below the threshold | 4 | below the threshold | below the threshold | below the threshold | 3.95 | below the threshold | 3.52 | below the threshold | below the threshold | below the threshold | below the threshold | below the threshold | below the threshold | 3.71 | below the threshold | 4.58 | SKSLERATQL [COMMD3, Q9UBI1] | pKd (NHERF3_4, Q5T2W1): 4.67; pKd (NHERF4_1, Q86UT5-2): 4.23; pKd (PARD3_3, Q8TEW0): below the threshold; pKd (PDZD2_2, O15018): 3.95; pKd (RAPGEF6, Q8TEU7): 3.85; pKd (SCRIB_1, Q14160): 3.83; pKd (SHANK1, Q9Y566): 4.81; pKd (SNX27, Q96L92): 4.25; pKd (TJP2_1, Q9UDY2): 3.72
3.77 | below the threshold | 4.81 | below the threshold | 4.57 | below the threshold | below the threshold | 3.56 | 3.53 | 3.94 | 5.46 | 3.75 | below the threshold | 3.82 | below the threshold | below the threshold | below the threshold | 5.14 | below the threshold | below the threshold | REVVMRVTTV [MARCHF9, Q86YJ5] | pKd (NHERF3_4, Q5T2W1): below the threshold; pKd (NHERF4_1, Q86UT5-2): 3.47; pKd (PARD3_3, Q8TEW0): below the threshold; pKd (PDZD2_2, O15018): 4.37; pKd (RAPGEF6, Q8TEU7): below the threshold; pKd (SCRIB_1, Q14160): 4.72; pKd (SHANK1, Q9Y566): below the threshold; pKd (SNX27, Q96L92): 5.46; pKd (TJP2_1, Q9UDY2): 3.92
below the threshold | below the threshold | 3.54 | below the threshold | 4.37 | below the threshold | below the threshold | below the threshold | below the threshold | below the threshold | 3.54 | 3.64 | below the threshold | below the threshold | below the threshold | below the threshold | below the threshold | 4.51 | below the threshold | 3.82 | VISERNSTTV [C3AR1, Q16581] | pKd (NHERF3_4, Q5T2W1): below the threshold; pKd (NHERF4_1, Q86UT5-2): below the threshold; pKd (PARD3_3, Q8TEW0): below the threshold; pKd (PDZD2_2, O15018): 4.55; pKd (RAPGEF6, Q8TEU7): below the threshold; pKd (SCRIB_1, Q14160): 3.72; pKd (SHANK1, Q9Y566): 3.49; pKd (SNX27, Q96L92): 4.57; pKd (TJP2_1, Q9UDY2): below the threshold
below the threshold | below the threshold | below the threshold | below the threshold | below the threshold | below the threshold | below the threshold | below the threshold | below the threshold | below the threshold | below the threshold | below the threshold | below the threshold | below the threshold | below the threshold | below the threshold | below the threshold | 4.23 | below the threshold | 4.05 | WRSKRTDTLL [RAMP3, O60896] | pKd (NHERF3_4, Q5T2W1): 3.53; pKd (NHERF4_1, Q86UT5-2): 4.33; pKd (PARD3_3, Q8TEW0): 3.48; pKd (PDZD2_2, O15018): 3.52; pKd (RAPGEF6, Q8TEU7): below the threshold; pKd (SCRIB_1, Q14160): 3.92; pKd (SHANK1, Q9Y566): below the threshold; pKd (SNX27, Q96L92): 4.31; pKd (TJP2_1, Q9UDY2): below the threshold
